Here are results for 20 molecules from patent publication US20060257938A1, “Method of screening for drugs that block ligand binding to a lipid binding protein” (priority 2005, published 2006).

Numbering of substitutions follows the chain as printed. Values joined by “and” are separate entries in the source; they are usually repeats but may differ in a detail not shown here. Equal entries are not always repeated.

The chains are these.
B1: 115K3, 72A (protein, listed as Rattus norvegicus)
chain: AFDGTWKVDRNENYEKFMEKMGINVVKRKLGAHDNLKLTITQEGNKFTVKESSNFRNIDVVFELGVDFAYSAADGTELTGTWTMEGNKLVGKFKRVDNGKELIAVREISGNELIKTYTYEGVEAKRIFKKE
modifications: PEPTIDE (1)...(131) wild-type rat intestinal fatty acid binding protein
B2: 102C, 72A (protein, listed as Rattus norvegicus)
chain: B1 chain with L102C, K115Q
modifications: PEPTIDE (1)...(131) wild-type rat intestinal fatty acid binding protein
B3: 14M 72M 117A (protein, listed as Rattus norvegicus)
chain: B1 chain with Y14M, A72M, K115Q, Y117A
modifications: PEPTIDE (1)...(131) wild-type rat intestinal fatty acid binding protein
B4: 38M, 72A (protein, listed as Rattus norvegicus)
chain: B1 chain with L38M, K115Q
modifications: PEPTIDE (1)...(131) wild-type rat intestinal fatty acid binding protein
B5: 115S1, 72A (protein, listed as Rattus norvegicus)
chain: B1 chain with K115S
modifications: PEPTIDE (1)...(131) wild-type rat intestinal fatty acid binding protein
B6: 117C, 72A (protein, listed as Rattus norvegicus)
chain: B1 chain with K115Q, Y117C
modifications: PEPTIDE (1)...(131) wild-type rat intestinal fatty acid binding protein
B7: 115N2, 72A (protein, listed as Rattus norvegicus)
chain: B1 chain with K115N
modifications: PEPTIDE (1)...(131) wild-type rat intestinal fatty acid binding protein
B8: 115R1, 72A (protein, listed as Rattus norvegicus)
chain: B1 chain with K115R
modifications: PEPTIDE (1)...(131) wild-type rat intestinal fatty acid binding protein
B9: 115P1, 72A (protein, listed as Rattus norvegicus)
chain: B1 chain with K115P
modifications: PEPTIDE (1)...(131) wild-type rat intestinal fatty acid binding protein
B10: 117D, 72A (protein, listed as Rattus norvegicus)
chain: B1 chain with K115Q, Y117D
modifications: PEPTIDE (1)...(131) wild-type rat intestinal fatty acid binding protein
B11: 115T3, 72A (protein, listed as Rattus norvegicus)
chain: B1 chain with K115T
modifications: PEPTIDE (1)...(131) wild-type rat intestinal fatty acid binding protein
B12: 78F, 72A (protein, listed as Rattus norvegicus)
chain: B1 chain with L78F, K115Q
modifications: PEPTIDE (1)...(131) wild-type rat intestinal fatty acid binding protein
B13: 38Y, 72A (protein, listed as Rattus norvegicus)
chain: B1 chain with L38Y, K115Q
modifications: PEPTIDE (1)...(131) wild-type rat intestinal fatty acid binding protein
B14: 117A, 72A (protein, listed as Rattus norvegicus)
chain: B1 chain with K115Q, Y117A
modifications: PEPTIDE (1)...(131) wild-type rat intestinal fatty acid binding protein
B15: 38Q, 72A (protein, listed as Rattus norvegicus)
chain: B1 chain with L38Q, K115Q
modifications: PEPTIDE (1)...(131) wild-type rat intestinal fatty acid binding protein
B16: 115Y1, 72A (protein, listed as Rattus norvegicus)
chain: B1 chain with K115Y
modifications: PEPTIDE (1)...(131) wild-type rat intestinal fatty acid binding protein
B17: 38T, 72A (protein, listed as Rattus norvegicus)
chain: B1 chain with L38T, K115Q
modifications: PEPTIDE (1)...(131) wild-type rat intestinal fatty acid binding protein
B18: 115L3, 72A (protein, listed as Rattus norvegicus)
chain: B1 chain with K115L
modifications: PEPTIDE (1)...(131) wild-type rat intestinal fatty acid binding protein
B19: 21Y, 72A (protein, listed as Rattus norvegicus)
chain: B1 chain with M21Y, K115Q
modifications: PEPTIDE (1)...(131) wild-type rat intestinal fatty acid binding protein
B20: 115V2, 72A (protein, listed as Rattus norvegicus)
chain: B1 chain with K115V
modifications: PEPTIDE (1)...(131) wild-type rat intestinal fatty acid binding protein

The nature of the first test: Probe fluorescence ratio response to linoleic acid relative to ADIFAB2. It is filed as binding. The note with it: response relative to ADIFAB2. The method, boiled down: (§1)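 Each fatty acid's response was expressed relative to ADIFAB2, the rI-FABP-L72A probe, as ΔR/ΔRreference. ΔR is the change in the background-corrected two-wavelength intensity ratio R=Fλ1/Fλ2 from its analyte-free baseline R0. Emission was read near about 420-480 nm for unbound and about 495-580 nm for FFA-bound probe.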
Regarding B1, the “DR/DR LA” value came to 1.23.

Regarding B2, the “DR/DR LA” value stood at 0.12.

As for B3, the “DR/DR LA” value is given as 1.956.

Turning to B4, the “DR/DR LA” value is given as 1.805.

In the case of B5, the “DR/DR LA” value was found to be 1.51.

On to B6, for which the “DR/DR LA” value is −0.19.

With B7, the “DR/DR LA” value is recorded as 0.78.

In the case of B8, the “DR/DR LA” value was determined as 1.45.

Take B9: the “DR/DR LA” value was determined as 1.37.

Take B10: the “DR/DR LA” value was 0.44 and 0.380.

With B11, the “DR/DR LA” value is listed as 0.45.

As to B12, the “DR/DR LA” value is on record as 1.955.

On to B13, for which the “DR/DR LA” value came out at 1.818.

Consider B14, for which the “DR/DR LA” value was 1.01 and 1.045.

In the case of B15, the “DR/DR LA” value is on record as 1.936.

In the case of B16, the “DR/DR LA” value came to 1.38.

With B17, the “DR/DR LA” value amounted to 1.577.

For the molecule B18, the “DR/DR LA” value worked out at 1.24.

For the molecule B19, the “DR/DR LA” value came to 2.015.

With B20, the “DR/DR LA” value amounted to 0.87.

The next test is described as follows: Probe fluorescence ratio response to linolenic acid relative to ADIFAB2. It is filed as binding. The note with it: response relative to ADIFAB2. The method, boiled down: as §1
As to B1, the “DR/DR LNA” value was 1.32.

Take B2: the “DR/DR LNA” value is listed as 0.12.

Take B3: the “DR/DR LNA” value was determined as 2.031.

Regarding B4, the “DR/DR LNA” value was 1.697.

With B5, the “DR/DR LNA” value came to 1.51.

For the molecule B6, the “DR/DR LNA” value was −0.13.

Consider B7, for which the “DR/DR LNA” value came to 0.73.

In the case of B8, the “DR/DR LNA” value is reported as 1.43.

For the molecule B9, the “DR/DR LNA” value came to 1.35.

B10: the “DR/DR LNA” value was 0.44 and 0.407.

Consider B11, for which the “DR/DR LNA” value stood at 0.54.

Turning to B12, the “DR/DR LNA” value came to 2.033.

For the molecule B13, the “DR/DR LNA” value was 1.884.

As to B14, the “DR/DR LNA” value was 0.62 and 0.631.

As to B15, the “DR/DR LNA” value is given as 1.986.

Regarding B16, the “DR/DR LNA” value is recorded as 1.27.

As to B17, the “DR/DR LNA” value is recorded as 1.639.

On to B18, for which the “DR/DR LNA” value is on record as 1.29.

For B19, the “DR/DR LNA” value worked out at 1.881.

As for B20, the “DR/DR LNA” value is listed as 0.93.

A short description of a further test: Probe fluorescence ratio response to arachidonic acid relative to ADIFAB2. It is filed as binding. To be noted: arachidonic acid; response relative to ADIFAB2. The method, boiled down:
as §1
For the molecule B1, the “DR/DR AA” value was 1.26.

Turning to B2, the “DR/DR AA” value is 0.14.

As for B3, the “DR/DR AA” value is 1.649.

Turning to B4, the “DR/DR AA” value came to 1.850.

With B5, the “DR/DR AA” value was 1.55.

On to B6, for which the “DR/DR AA” value is on record as −0.17.

For the molecule B7, the “DR/DR AA” value was 0.92.

On to B8, for which the “DR/DR AA” value stood at 1.40.

Turning to B9, the “DR/DR AA” value is listed as −0.17.

Consider B10, for which the “DR/DR AA” value is 0.41 and 0.352.

For B11, the “DR/DR AA” value worked out at 0.57.

For the molecule B12, the “DR/DR AA” value is listed as 2.001.

With B13, the “DR/DR AA” value was 2.081.

Turning to B14, the “DR/DR AA” value was 1.27 and 1.332.

Take B15: the “DR/DR AA” value was determined as 1.976.

For B16, the “DR/DR AA” value is 1.42.

For the molecule B17, the “DR/DR AA” value is given as 1.598.

As for B18, the “DR/DR AA” value is listed as 1.26.

On to B19, for which the “DR/DR AA” value was found to be 2.378.

Take B20: the “DR/DR AA” value was found to be 0.84.

The next test is described as follows: Probe fluorescence ratio response to palmitic acid relative to ADIFAB2. The format is binding. To be noted: response relative to ADIFAB2. Summed up: as §1
On to B1, for which the “DR/DR PA” value amounted to 1.18.

As for B2, the “DR/DR PA” value amounted to 0.09.

Take B3: the “DR/DR PA” value was found to be 0.870.

As to B4, the “DR/DR PA” value came out at 1.131.

In the case of B5, the “DR/DR PA” value was determined as 0.77.

As for B6, the “DR/DR PA” value was −0.12.

With B7, the “DR/DR PA” value amounted to 0.56.

B8: the “DR/DR PA” value stood at 0.70.

On to B9, for which the “DR/DR PA” value is listed as 0.70.

Regarding B10, the “DR/DR PA” value is 0.17 and 0.142.

With B11, the “DR/DR PA” value turned out to be 0.49.

Consider B12, for which the “DR/DR PA” value was 1.416.

As for B13, the “DR/DR PA” value worked out at 1.518.

With B14, the “DR/DR PA” value was 0.32 and 0.331.

As for B15, the “DR/DR PA” value was determined as 1.551.

Take B16: the “DR/DR PA” value is 0.73.

Take B17: the “DR/DR PA” value came out at 1.022.

B18: the “DR/DR PA” value was 1.15.

For the molecule B19, the “DR/DR PA” value amounted to 1.094.

Turning to B20, the “DR/DR PA” value is listed as 0.85.

The nature of another test: Probe fluorescence ratio response to oleic acid relative to ADIFAB2. The format is binding. The note with it: response relative to ADIFAB2. Summed up: as §1
Take B1: the “DR/DR OA” value was found to be 1.25.

For the molecule B2, the “DR/DR OA” value was 0.11.

As to B3, the “DR/DR OA” value is listed as 1.054.

For the molecule B4, the “DR/DR OA” value stood at 1.630.

Turning to B5, the “DR/DR OA” value was found to be 1.41.

B6: the “DR/DR OA” value is given as −0.24.

For B7, the “DR/DR OA” value was found to be 0.71.

Turning to B8, the “DR/DR OA” value came to 1.36.

Consider B9, for which the “DR/DR OA” value is 1.26.

In the case of B10, the “DR/DR OA” value was 0.35 and 0.294.

As for B11, the “DR/DR OA” value is 0.46.

For the molecule B12, the “DR/DR OA” value was 1.912.

As for B13, the “DR/DR OA” value is given as 1.717.

Take B14: the “DR/DR OA” value is 0.93 and 0.947.

On to B15, for which the “DR/DR OA” value was 1.842.

As for B16, the “DR/DR OA” value is listed as 1.23.

B17: the “DR/DR OA” value was determined as 1.547.

For B18, the “DR/DR OA” value came out at 1.25.

Take B19: the “DR/DR OA” value is 1.982.

Take B20: the “DR/DR OA” value is given as 0.91.
